This test addresses human SMCT1 (monocarboxylate transporter of the SGLT family) (Homo sapiens (Human)., UniProt Q8N695). Briefly: cryo-EM structure.

This note sets out measurements from PMC9482448 (Nature, 2021).

Chain of human SMCT1 (monocarboxylate transporter of the SGLT family) (Q8N695 whole entry): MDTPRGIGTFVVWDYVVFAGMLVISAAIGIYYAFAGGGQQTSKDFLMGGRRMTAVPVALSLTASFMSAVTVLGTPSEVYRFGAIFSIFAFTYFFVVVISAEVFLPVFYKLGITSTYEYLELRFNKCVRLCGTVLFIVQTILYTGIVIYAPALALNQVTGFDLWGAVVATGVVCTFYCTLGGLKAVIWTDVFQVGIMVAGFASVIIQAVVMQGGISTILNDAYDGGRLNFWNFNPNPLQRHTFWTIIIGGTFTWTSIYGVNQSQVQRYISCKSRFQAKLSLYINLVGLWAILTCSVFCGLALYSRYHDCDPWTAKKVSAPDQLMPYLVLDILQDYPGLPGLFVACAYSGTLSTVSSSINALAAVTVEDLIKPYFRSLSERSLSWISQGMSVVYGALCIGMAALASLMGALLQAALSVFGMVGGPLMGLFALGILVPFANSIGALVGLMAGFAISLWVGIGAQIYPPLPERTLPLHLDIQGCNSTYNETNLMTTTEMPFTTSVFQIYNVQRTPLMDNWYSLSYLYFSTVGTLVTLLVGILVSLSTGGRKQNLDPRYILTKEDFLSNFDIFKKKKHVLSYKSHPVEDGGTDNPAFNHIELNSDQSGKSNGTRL

B1: nanobody Nb2 (binds SMCT1) (VHH)
VHH: QVQLQESGGGLVQAGGSLRLSCAASGNISTRAGMGWYRQAPGKEREFVASINWGAITNYADSVKGRFTISRDNAKNTVYLQMNSLKPEDTAVYYCAVEYKYGPQRSDTYYYWGQGTQVTVSS
As for B1, the binding result is “binds”.
